# Test results published in the supplement of paper PMC12042874.
# ± gives the uncertainty stated by the source.
# Assay: amyloid nucleation score (Sup35N fusion, yeast selection) (log enrichment); library NNK1; higher = more nucleation; inactive = no reads after selection
# In short: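 Nucleation score is defined as the DiMSum log enrichment of output over input reads, with centring on the mode score of non-aggregating sequences. A minimum of 100 input reads was required for each sequence. Reads came from Illumina sequencing of plasmid inserts from psi-negative yeast expressing Sup35N fused to peptides of 20 random codons, induced with 100 μM copper sulfate for 24 hours and grown 7 days at 30°C on medium lacking adenine and uracil.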
row,Substance,amyloid nucleation score
1,IGMALKWNFLCKSSDRFLRV,0.296 ± 0.97
2,NYSDYMWTRLANLA,-0.2 ± 0.72
3,IYGGYEK,0.626 ± 0.84
4,RNIVIMYRNCLVKLNLETGS,6.77 ± 0.053
5,VCVHDLCSLIQLGAYVMRET,0.383 ± 0.29
6,YYETLLNKDILDMWEYR,-0.393 ± 0.55
7,GFYGRL,-0.774 ± 0.74
8,LLNSFPSNCQVKDMELQGME,-0.176 ± 0.93
9,LHLNSCSQNITSLHYLPFWA,-0.113 ± 0.39
10,EMNLSLSVCALFRFIT,-0.56 ± 0.43
11,QRQNVYVGGYIANMVHGSGC,1.27 ± 0.58
12,FSDFN,-0.3 ± 0.42
13,LVDWVYGWGVVVFAMSQGSE,0.125 ± 1.4
14,DEFSFDSSLLMLFGAGYGV,0.932 ± 0.62
15,LSVVSWICRFDALQGHSCVK,-0.561 ± 0.41
16,VPLRTWLITWLGYNSHNWLC,-0.302 ± 0.76
17,GMSGGWPIYKLGSS,1.05 ± 0.25
18,YSGCRTPDTVSVVTSTHAEY,inactive
19,RSETGMYSAHACLL,-0.314 ± 1.7
20,LVLCSFYYDKAWSPESCLME,-0.258 ± 0.62
21,SHASSSSSGCAYQSLVIWIN,4.45 ± 0.081
22,QISVKTMLLSLTFRMFIYWN,-0.168 ± 0.38
23,FMSYD,0.362 ± 0.79
24,SCGLYFAGVEVGGAVSLCKG,0 ± 0.48
25,INVIYNICFQVSW,8.413 ± 0.052
26,SGYVNFHL,inactive

row,Substance,amyloid nucleation score
1,NYSDLKRGHRLDSADGWDGI,-0.613 ± 1.1
2,VYLVGASWPADVDEFGGRKD,-0.402 ± 0.54
3,HDSLMRSGSFNTSVTVEY,0.843 ± 0.55
4,SQCQFVMVDRNGYGTKLRNY,-0.24 ± 0.36
5,VAEWRSMNVGVGRATIEGLS,0.579 ± 0.28
6,LMHKDISERDRSCLWL,0.033 ± 0.5
7,WFRRLVTFSYNGWSYLSD,-0.779 ± 0.73
8,ERHMYMSCWFTNY,0.777 ± 0.21
9,CRSYNYLIVMKDLLPSALKT,1.23 ± 0.36
10,KYVIGVNAMEWWPTTTAI,0.166 ± 1.6
11,LSIFMTITAVESPWVTETVF,-0.803 ± 0.4
12,FNRSLLLALVSAFENGLLSW,0.51 ± 1.2
13,GFSWSNITKCGWACGSDGMK,0.676 ± 0.45
14,LNLGGSF,inactive
15,VIDEFLSMCRVNMMGGVCRV,2.28 ± 0.35
16,WNYPYIFVGGPKKIGGGRRG,0.584 ± 0.58
17,AHLRCDREDIVESTSECGVG,inactive
18,HPSVGYSSLVV,0.841 ± 0.62
19,MLWSL,0.342 ± 0.59
20,IRMDSCRTFYLSLSWHIYCS,0.338 ± 0.23
21,MHVQRVFTRCFKFSPQFVRH,-1.11 ± 0.36
22,MVGQYRYLSPYGW,0.724 ± 1.2
23,ESMRFHRGEVGPLWDVRWGA,1.61 ± 0.78
24,TCNGCGGHRMFWYK,0.099 ± 0.55
25,GRMGVSSWAGSQRVLIGENL,1.47 ± 0.3
26,NGFQLTILKDHGLVKRQSPR,inactive

row,Substance,amyloid nucleation score
1,WFVKLNFLCLCVNMDWHSTY,0.352 ± 0.28
2,IYRAHYAIYSAF,-0.026 ± 0.64
3,VIAFCSRPDC,0.425 ± 0.52
4,TLRLKWSWEADCDI,2.49 ± 0.12
5,EVMDTLYLLLVCRYFAKCIT,inactive
6,PTCLSWGGVMRRDL,0.341 ± 0.48
7,CKVLCYIAYTWNLDCTEFEG,6.449 ± 0.063
8,CNWPDLDLSNRKWNPMKSML,0.146 ± 0.69
9,LQSYWRYRVKRFV,-0.39 ± 0.39
10,YIGVRCG,0.026 ± 0.51
11,VVLGCDVMLYRISFPFMIHS,-0.036 ± 0.47
12,ILCICY,2.48 ± 0.2
13,QVVRIYQVQGLWIMVHR,1.96 ± 0.28
14,QKTASILLPVRYFWCEKSWM,-0.667 ± 1.5
15,TAGATI,0.108 ± 0.25
16,DATTTLFL,-0.281 ± 0.77
17,ASFASKARHKR,0.728 ± 0.87
18,QMRSVYVQDTINMALIIHEL,0.617 ± 0.27
19,TYWEMVHWGQEASMGSIRRR,1.97 ± 0.24
20,LVGRRGYFSLVWVPGMSFMR,0.289 ± 0.45
21,EVRLPQTYLVEWGTNQFRF,-0.504 ± 0.57
22,TYTCPVGNWVRMEGDLYFLA,-0.847 ± 1.3
23,CTVKLLMCQAISLTCSLGFF,0.534 ± 0.56
24,GMDTYLMETLCSTVNLRCHA,-0.604 ± 1
25,WPVLFFI,-1.46 ± 1.8
26,WSSYGCAAEMDALVCHGDAF,1.47 ± 0.88

row,Substance,amyloid nucleation score
1,DNGVLQNNWVIMYCELHHGV,5.691 ± 0.052
2,IMNLSRNRVGLRVYGI,-0.029 ± 0.41
3,NVAPSQSFPSLYCSE,inactive
4,WFSAASGIMKEFSVG,-0.277 ± 0.36
5,IRSQKRYLCSGSLLCKVSRR,1.38 ± 0.51
6,LIRHVLNLVL,-0.139 ± 0.77
7,LVFVSFIW,0.942 ± 0.17
8,RIVILLKVIYFQFYRLQYIT,0.03 ± 0.32
9,VGLVLKIHVYNYFMETAQQS,6.555 ± 0.053
10,SFWWSDATMFEFVKGSRSGK,inactive
11,CIKNSLRRYMCAYFSWGRRG,-0.744 ± 1.2
12,SYGNVWYIMYHRLKDTGWYM,1.4 ± 0.43
13,YNMVYQCLIRCVAILFNLGR,-0.321 ± 0.65
14,STSDMLVDSRQIVGEYTSDL,-1.3 ± 1.7
15,QMVGESDECRCSLYSGQWKG,-0.186 ± 0.42
16,PMYLSSVVCFSKRHMPANRG,-0.138 ± 0.52
17,WTVSWHIVGYSRVDVMKRTK,inactive
18,LFTNMYSRVLTFLM,-0.441 ± 1.7
19,PTTEWKVVRT,0.808 ± 0.57
20,PDCLPPWSRRLLGNRVAIGL,1.01 ± 0.57
21,DFVETEFRLRRD,inactive
22,ESLFPVCGEMTVTCPLSPTE,0.423 ± 1.4
23,VLCNFWMD,2.9 ± 0.17
24,GGLGVDATGYHVSTEGEELE,-0.275 ± 0.43
25,RPWAWPRCRSCAST,0.689 ± 0.37
26,EMSINLRNL,0.558 ± 0.16

row,Substance,amyloid nucleation score
1,RGDLSYYCRSNN,-0.5 ± 1.4
2,NIITVGNGSILMMVWSSEVN,5.63 ± 0.08
3,TSELNSYSTCFHSDGLSMNR,inactive
4,LYTCCSTYVCSNLGRNVK,7.074 ± 0.06
5,HVYMGYICCHAETDACMGCR,4.57 ± 0.14
6,WNLNKYSFILALDGSYYVLN,3.23 ± 0.24
7,CGDMWLTDSLHGMNCSLFRR,inactive
8,NRSVRGVFLEGNVRFCWLRE,1.21 ± 0.85
9,TTVGNVFSGVHV,0.027 ± 1.7
10,GIPYSVDGYVLVDVSITTIA,inactive
11,WSNPPITCSSVGINHHVSVV,-0.171 ± 0.33
12,YMEGAGRYWRGQRKLPPCIA,-0.414 ± 0.67
13,PDSLFPLCFLRLWLISSIVR,1.49 ± 0.84
14,YLWLVWEDV,0.721 ± 0.69
15,IIKFSNDWDVDKFSFGSVLE,0.596 ± 0.63
16,QAFSNESVTRDLLCG,-0.957 ± 0.64
17,SYEMWLEHYMRRQQRRP,-0.282 ± 1.7
18,VSLFLYISLSLRIVRRYVRV,0.263 ± 0.27
19,IDNGDCYNDRVLADTVS,-0.577 ± 0.6
20,MKDYHSDHIKIVQANHTEKV,-1.32 ± 2.4
21,QWCDKVFL,-0.687 ± 0.4
22,EHSPRRGAL,0.063 ± 0.66
23,PCFYSSGDVVMNRGV,-0.507 ± 0.26
